Results taken from the domain aggregation screens of Martell et al. (2025).

Experiment: soluble fraction after stress (log2 fold change); higher = more stays soluble; pooled small domains, quantitative proteomics
Details: stress: 50 degC
Procedure, shortened: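 Pooled custom libraries of small protein domains were measured in a high-throughput format, with quantitative proteomics as the read-out. Each library was stressed at 50°C. Aggregation propensity is given as the base-two logarithm of the fold change in how much of each protein stays soluble after the stress. Higher values mean a larger share of the protein remains in solution.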

| Sequence | soluble fraction (log2) |
| --- | --- |
| HMELSPVDLGERLKIARETANFTQDAAAKAVGIARTTLVSIEKGQRTARLDEIQALSRFYGVSANALLR | -0.499 |
| HMGTGADQVSWKTGDKVTHKKWGEGTVVKVSGSGNDKELDIAFPQQGVKRLLASFAPIKKVT | 0.168 |
| HMITNMIIIMKPNASEEAIEKVKHLIESKGLQAHLSKGDEVTIVGVVGDKTRLHDSNIEISEGVDKIVNVT | 0.317 |
| HMGKKIVERRNTILNMVNKYGTLDFPQLRDAFPDVSDVTLRKDLQYLDSTKQAIRTHGGIKSI | 0.0534 |
| HMSKTDYKILYSDLNREDAKQLSLLLEDKKIPYQTSEDGKTIKIPEGMVNRFRMEVATMGVNF | 0.00779 |
| HMDYARYGLSEKEAELIELIAQGMNNKEISAEIYLSEGTVRNYISELLEKLELRDRTQLAVYYYTHR | -2.71 |
| HMSKSPELMEKIKEFAEGYFRENGETPSNKTIAGAMGMGRSTVYYYLVDMAQRGMISYENGVISTEKIRKL | -1.32 |
| HMVRVSELAIEPRLVVEETATGFVGAVVRYANGLIELEDRHGAVRTFPLGPGYLVDGRPVSLVKPT | -0.371 |
| HMATMSIDERILEIRSRAGLTQQEMADRLFVTRQAVSRWERGETVPGIDTLRLIAEAFDVRVDQILEL | -1.69 |
| HMKQVEVPRLVGLTLREAQAVLGQVGLRIGLISRAALLASPREQIVEQIPVAGERNIATPYVNLLVNVP | -0.649 |
| HMRQQLAEILQKAVDNLPEAQRLVWLLRDKSDMTFKEIAEDLQLTEANVRVLLHRARLKLLAVINQYEE | -1.38 |
| HMRIQLNFSDQLLDDVMSEALKHIDRKSQEHHIEKQMDDEFMLVYIDARLIIQVIVNIINNAIKY | -0.00268 |
| HMEGNWGLWAKVPNRFAALTTDKDSALRRFKSKEDGEAWMASHGLKPERFDVLEIPADYKPA | 0.0433 |
| HMATKVNSGVTVRDLAELLGLSSADLIKKLMTMGEMATLTQTLTDDSVKAIADEYDRKIEIVSAAQ | -0.0488 |
| HMKLSDDIIVDTIKEIIEENKNMIEQRKMGAMGPLMGKAMAKFKGKADGQTVSNVIKDEILNIIN | 0.154 |
| HMKAQLQHIIGSNIKLARNTQGYTQEGLAERAEISVEHLKQVERGKKMLSVESLVNVANALQVSVDSLV | 0.0587 |
| HMSHGFFTLQSDDLNLLRTVLEGHSSIGDIKIEGIQLVAYLKEPLNGAELNKILFEKGINLSYLVHRK | -2.15 |
| HMLFKNASGTVVSRIQSQVDGQINIRTGSGNAPDYAFVAKPDGAVELYHNGTKQFETGSSGVLLP | -0.274 |
| HMDGVSAEAVKSHIKTLIDGEGAKILSDDTLVDLLNAKGFDIARRTVAKYREAMGIGSSVQRRRQKKMG | 0.178 |
| HMGQDTTIVVRRGESLLGIAARLLPATDFYTTGELAEGIRTASGMENDRLIPGQTLRVPLNSG | -0.0889 |
| HMEAPWQEIKRQVMDGLDMSREFTDEELRERIALAVRSYSKEKLLSLKVRESYEEQIFNSFR | -0.239 |
| HMAPPTAEFFAHLPAEALSAVRRSVEEGNARGIDEAILRVETLDGEAGRVLRGLAARYEYGRILELTQR | 0.117 |
| HMVSKSDVQRALEKVEPVLRKLGGSTVEKVRVMARQATLVFEMLKSWWKGEIDLPWKTVAAMTVTLLYL | -0.266 |
| HMANTSAVIKQPGLVKLFAQHFVRNGFNAMKAAEAAGFVRPSPTFVRNLADSKPVKDAISELLGPYNDA | -0.0131 |
| HMKTDFEIDITVKASSLRVVASPGGDELVGTVTRGDRVTQLATPKDGWILIKMTDGRLGYVPESLLLFP | -0.0577 |
| HMKGDYWIIDLDKNYQYAIISEPDRQYLWILSRSPNMDTQTLETLKEKIRSKGFDLTYLKQTL | -0.844 |

| Sequence | soluble fraction (log2) |
| --- | --- |
| HMYEIEDIKEKLLDLLANSKTGFSGLEISNRLGINRITVSKYLNIFSAEGLIKQKNIGNVIIWFVEDGIE | -0.203 |
| HMQVSIGERVKLARMSAGLNQRQLGKEMGMSAMAISKYETGEVVPNSRVLIQLSQTLHVPLDFFFRS | -2.69 |
| HMDGYTAVDKAVSDQYYTKENQLYFVSMGNFFSLGAKKIEGADISSFQILTTEYARDLQHLYFNGKV | -0.383 |
| HMYRLSPSWRIVERDDGFEIYGGDDARFQLDPSPLVSRLAAGDAVTRDGLDPTGAIEFEQLLSAGMIRPEI | -0.124 |
| HMADLTIDGVEYTKVSPTGTLTLEKVYTKNVTPADGQYYIQTGTKTVRVATDAEVAVIKAGGF | 0.0157 |
| HMRLDVALRGVLLDGDPTQSRAFVLVSGTTSTYRLGETVQSAELVAINADTITLRTETGLHVIGFDGLI | -2.48 |
| HMAFRWQQIADTITSMIANGSYPRGSRLPTEAALADSFGVNRHTVRRAVAALRDTGLVQPRQGAGVFVIG | -1.55 |
| HMTPAIEKTAVIVFINGKKYYVHTVKSGETLYSIAKAYKVDEKVIKEHNPNVADGLRIDQTVKIPVPEQVK | 0.144 |
| HMSVLSVASKNQAINPGQVVALLKDGIKLNDDGRVEILDNNNNIRYNEKGNLLSIEERVKEFLDANPHFRQ | -0.368 |
| HMEDAWMKKELWDAIATLPKKQRLVMTMRLTNNHSYKEIAAILGISENSAKVSYHHAVERLKEKFK | -1.33 |
| HMKVDLSEEEKTILELLKKESPQELETIKAASTLSNKKWDKAIKGLRKHNLAKVNKTDDGLFVELE | 0.257 |
| HMQAITVNNEGKIFLNTIPVTLEELSSKLESLKSSTPEFPVVIRGDSGSQYQGIMDVLNVVGRLGITQIGL | -0.246 |
| HMSILSRREHEIMQWVKGGKTNIEIAQILGISARTVRNHLQNVFRKLDVINRAQAVFEVERRR | -2.15 |
| HMQPHLSADEEHLLKILGSDTMHIDALVKRSTLETSNALAALAFLEMKGLVKNIGNMHYIRTYR | -0.139 |
| HMRSNIYTEEKLWTVLQDFFQENRYLTISLMRMKFGLSRHMAQKWIDHFIAKGLLVKDGTPRSPIYFLND | -2.3 |
| HMILALAISSEEDDARIYATYADRLREAYPASARVFEGMVDEEHEHRRRLIDLFQRRFGDTIPLVRREHV | -0.61 |
| HMDKEIKILKEKRLDDVQQAIRELSPQKRRVVEMKLYHNSTNQEVADKLAISVNTVKSLYTSALHDLRRIL | -0.139 |
| HMTDMYLTYQELRHLGVSQNLISMWKSRKSIDFHMLGGTLYVRYMSIPEQTRSKLALQNVERVYNSRE | -2.55 |
| HMVQQAVNMAKPGKLFTGPSPTSKALRDLDAGAMLYPTGEKQGPFWKVQDELGNEGWVAMGLLQLA | 0.175 |
| HMEQQVDYTQFIQDVRQGQIREVDVDRNGVINGIKRSGENFVTVIPGGYDRDLINDLVKQGVNATGEL | 0.107 |
| HMQKWILVNKQGRLSGILDHRAFNTRESATAWFQRTSDISGGTIKIDDYYYVLKNEEYKLLKE | -3.15 |
| HMKELTARQIEILDFITNYEWRHGYWPSIRNIQVQFSYKSTNAVMGHLRALERKGAIERIPGQARTFRIH | -2.97 |
| HMDKNNLHSVLQDVPGIGPKRMKELMRAFGSVEGMKKAGLEELAAVKGMNHKAAEALIQFFR | 0.199 |
| HMRLARPLTPTEERVLRLLASDMSNAKIGEVLGIRLPTVKSHVSHIMQKLGVTSRAKARTAAQQLGI | -0.887 |
| HMPWLIAVTVDGVNLPRFLRRAGEMGLLLTGVRIRGKHLSAFAREDDVPPLRMMAENGGWRFSVGN | -1.61 |
| HMVNIAVMTVSDTRTEADDKSGSLLVSKIEGDGHVLADRAIITDDVPRIIAKLKEWIESPQVDVVVT | 0.0468 |

| Sequence | soluble fraction (log2) |
| --- | --- |
| HMVDVEMLTTVSDHIEAKLLQGILENHGIPSYSVDEESGEYMRVYMGYSIFGEKIYVRASDLLAAQGYL | -2.25 |
| HMGRTITVGIAEDADIKDIAKMLEEKGLISDYRLFVVQELLSAQHDKIKPGIYDLSTDMKAEEMLEILAG | -0.541 |
| HMRFQGKISDWNDEKGYGFVEPNGGGTRAFVHIKSFTDLPRRPINGDIIIYETTTDEKNRVQANNISFTR | 0.0181 |
| HMGQVSDENQLNKVIDEVIKNYPIQVEQFKAGKEPILQFLKGMVMKATEGSADPAVAEKLLRKKL | 0.237 |
| HMPGDIRKAAILLMSLPREQAAQVLARLDPKQVEAVTIEIARLGTVTPDEQEQALKEFSQANPA | 0.0798 |
| HMMTDAEKTFIFFSHLSSVEDHIAYGDKQFYMSLFWQHENKRELSSSQLYHLERLYNKYSMEEIEKKEEFS | -0.78 |
| HMQEVKVRLKPDYLGEVLIKVISDKGELKAELFVSNSQVRSLLRAYAVEFQNQIRDQGYNFSEINVYR | -0.551 |
| HMKELFGQRLREQRLKQNLTLEQLAEKANLSPNYVGMVERGLKEPGLATIVKLLNGLNVSADTLL | -0.036 |
| HMQNYTTIIGVIELRLNDISYDNVRKRYHIGRSGITLIMDRYRDSGLSLEDLKQMTPEKVVDLFYPR | -2.3 |
| HMIDLGKSRTWHSENGRAIEARVINISEEQQTVEMQRVDGLKFELSWNQLSKADQTLLAEAAKKTALVA | 0.0711 |
| HMALPASLSPREREIVSLISQGKTNSEIASLLYISVPTVKTHISNIFQKTGVSNRTSLLNRLRMS | -0.164 |
| HMHLLPAREQVAAYLRKAILRQEIREGTILNLADTARQMGVSVTPVREALQLLAAQGLVRLRPNKGAVVMG | -0.891 |
| HMDRYVDEEKRFYWRSGEAYLNFSKYKDRSLAEVATVDPGFLRWMMEADFSPETKQIVERALEGEFPQKK | 0.123 |
| HMGVARGQAQVTTRQHVVQPGETLYQISKQYGVTVAEILRYNADIEDNTVKVGQTLQIPTPLP | ≥ 0.62 |
| HMITTWAGKATTDVYGRVDANPKADAVLVIKTGWTVQVVGSKTAPDGGTWYKLIYNGKTMYANSKFIVK | -1.16 |
| HMDRKARRKYIEQVVNDRKIETQEELLKLLTEAGFETTQATISRDIHALNIVKANDGDGHTHYVQLH | 0.144 |
| HMAQWGFNGSEAGDLSFQQGDVIEVVEKVKDDWWRGRVLGSTEIGLFPS | -0.225 |
| HMNLSNVVIRKVQEMILSGELQEGDKLPPEREMTQRLGIGRPALREGLKSLEMLGLVERRHGLGNFIINKV | -0.783 |
| HMNLWIDNTQVINDWTEGASERSGSIYLTAGVKPIKMQYFDSVLNAKAILRWQGPGINKSVVPSSALTPG | -0.855 |
| HMEELNFYPNPAYKYINLDYVGLKEIYTVLGKKLLETYDTRINISNLNSGIYLIKFKNQALRFVK | -0.0334 |
| HMQNKRQEQLLALLAERRDYMTSRQLAEILQVSDRTIRSDVEAINRRSSPPPIESNVRQGYRLNPEA | 0.0852 |
| HMSTVAETVYNEIRDDILYGELQPGVKLKLEALRERYSVGVNTLREVLNRLVASGFVFVEGQKGFRVV | 0.0966 |
| HMLTLTNREKQVLVYIAKGHQVAQIAYELKLSGHTINGYIKTIYQKLHISSRAEAALLAQQYGL | -3.56 |
| HMHMSKKLADSIISLRRKHGFSQEQLAEKIGVTRQAISNWERGTATPDVETLNLIAKLFDMDLLAIINGE | 0.0766 |
